Source: patent publication US6855515B1, “Autoantigenic fragments, methods and assays” (Merck & Co., Inc., priority 1998, dated 2005)

Key:
[1] = target: T1, caspase-1 (Homo sapiens, UniProt P29466); details: cited from earlier work
T1 sequence (P29466 120-297 limits assumed): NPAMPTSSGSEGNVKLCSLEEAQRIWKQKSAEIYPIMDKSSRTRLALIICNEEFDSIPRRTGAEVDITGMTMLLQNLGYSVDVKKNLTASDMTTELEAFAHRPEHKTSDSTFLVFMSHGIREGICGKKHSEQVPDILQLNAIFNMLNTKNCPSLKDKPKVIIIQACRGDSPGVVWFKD
T1 sequence (P29466 317-404 limits assumed): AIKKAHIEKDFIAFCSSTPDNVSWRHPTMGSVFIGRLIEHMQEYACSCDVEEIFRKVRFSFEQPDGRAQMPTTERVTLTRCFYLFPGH

[2] = target: T2, caspase-7 (Homo sapiens, UniProt P55210); details: cited from earlier work
T2 sequence (P55210 24-198 limits assumed): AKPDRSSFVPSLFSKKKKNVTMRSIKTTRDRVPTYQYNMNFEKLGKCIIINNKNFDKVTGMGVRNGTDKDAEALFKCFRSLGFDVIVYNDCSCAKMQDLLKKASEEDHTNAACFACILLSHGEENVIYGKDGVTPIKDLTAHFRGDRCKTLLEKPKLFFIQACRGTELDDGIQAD
T2 sequence (P55210 207-303 limits assumed): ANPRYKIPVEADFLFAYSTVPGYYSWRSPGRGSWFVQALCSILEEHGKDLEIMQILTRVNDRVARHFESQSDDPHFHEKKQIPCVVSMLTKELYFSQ

[3] = target: T3, caspase-10 (Homo sapiens, UniProt Q92851); details: cited from earlier work
T3 sequence (Q92851 220-415 limits assumed): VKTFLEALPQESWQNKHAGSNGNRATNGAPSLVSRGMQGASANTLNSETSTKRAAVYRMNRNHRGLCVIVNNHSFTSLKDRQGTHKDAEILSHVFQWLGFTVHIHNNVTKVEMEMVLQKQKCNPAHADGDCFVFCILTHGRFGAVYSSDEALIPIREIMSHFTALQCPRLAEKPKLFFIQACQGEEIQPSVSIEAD
T3 sequence (Q92851 416-521 limits assumed): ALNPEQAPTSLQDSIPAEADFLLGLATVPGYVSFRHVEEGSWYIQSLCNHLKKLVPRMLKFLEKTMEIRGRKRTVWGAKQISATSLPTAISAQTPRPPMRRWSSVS

[4] = target: T4, caspase-3 (Homo sapiens, UniProt P42574); experiment: Cleavage of endogenous substrates in HeLa lysates by added purified caspase-3, with inhibitors; assay type: biochemical; details: 100 nM inhibitor, HeLa lysate, 105 pM caspase-3, 37° C. 60 min
T4 construct: made in house
T4 sequence (P42574 29-175 limits assumed): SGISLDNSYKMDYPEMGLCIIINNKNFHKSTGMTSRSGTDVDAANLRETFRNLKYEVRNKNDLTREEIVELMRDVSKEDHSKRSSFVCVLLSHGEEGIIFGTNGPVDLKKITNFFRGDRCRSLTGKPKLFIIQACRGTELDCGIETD
T4 sequence (P42574 176-277 limits assumed): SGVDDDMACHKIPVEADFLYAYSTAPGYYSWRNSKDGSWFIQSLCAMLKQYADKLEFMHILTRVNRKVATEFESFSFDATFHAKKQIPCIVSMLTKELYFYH
Procedure: (§1) Control HeLa lysates were prepared using methods commonly applied in the art, as described in Casciola-Rosen et al., 1994. […] The mixtures were incubated for 15 mn on ice to facilitate binding of the inhibitors to proteases prior to performing cleavage reactions at 37° C. for 60 min. After electrophoresing the samples on 10% SDS-polyacrylamide gels containing 0.087% bisacrylamide, the intact proteins and their cleaved fragments were visualized by immunoblotting.

[5] = target: T4, caspase-3; details: cited from earlier work
[6] = target: T5, granzyme B (Homo sapiens, UniProt P10144); experiment: Susceptibility of autoantigens to cleavage by purified granzyme B (HeLa lysate immunoblot or immunoprecipitates); assay type: biochemical; details: in vitro
T5 construct: Some of these preparations were used for the further purification of granzyme B (Tschopp, 1994); endogenous in cells; host or cells: YT cells (human NK cell line), cytoplasmic granules
Procedure: To determine whether susceptibility to direct cleavage by granzyme B was an isolated feature of PARP, NuMA and DNA-PKcs shown above, or whether it was a more general feature of autoantigens, a variety of well-defined autoantigens selected from across the spectrum of systemic autoimmune diseases were tested for susceptibility to cleavage by purified granzyume B. The efficiency of cleavage of the substrates by purified granzyme B was also noted (Table 3). Initially, a series of autoantibodies of well-defined specificity were used to immunoblot lysates of HeLa cells that had been incubated in vitro with or without granzyme B. Lysates were pre-treated with iodoacetamide (IAA) to prevent interference by endogenous caspase activity.
To perform these studies, HeLa cells were radiolabeled with [^35S] methionine/cysteine, and proteins were immunoprecipitated using human autoantibodies. Protein A-agarose beads containing washed precipitated proteins were resuspended in buffer supporting the activity of granzyme B, and incubated in the absence or presence of added purified granzyme B. Reaction products were visualized using SDS-PAGE and fluorography. To confirm the validity of this approach, several different autoantigens known to be cleaved by granzyme B, as well as several autoantigens and non-autoantigens that are not cleaved by granzyme B, were tested. Using autoantibodies that both immunoblot and immunprecipitate, the cleavage profiles obtained using granzyme B to cleave molecules in lysates (followed by detection with immunoblotting), and after immunoprecipitation (from [^35S]methionine-labeled HeLa lysate) were compared. Identical results were obtained using these 2 methods for cleaved autoantigens (topoisomerase-1, Mi-2, RNA polymerase II large subunit, Ku-70, PARP, and NOR-90), uncleaved autoantigens (Ku-80, Ro 60k), and control substrates (β-tubulin, vinculin). […] Of note, all these additional autoantigens (with the exception of RNA polymerase I) are targeted in autoimmune myositis. However, two other tRNA synthetases (threonyl tRNA synthetase and glycyl tRNA synthetase) that are also autoantigens in autoimmune myositis, were not cleaved using this approach.

[7] = target: caspase-8 (Homo sapiens, UniProt Q14790); experiment: Cleavage of substrates by purified caspase-8; assay type: biochemical; details: 50 nM purified caspase-8; HeLa lysates treated with iodoacetamide, or radiolabeled IvTT substrate
Procedure: To confirm that these substrates were not cleaved by group III caspases, the substrates were incubated with 50 nM purified caspase-8. Cleavage assays were performed in HeLa cell lysates in which endogenous caspases had first been irreversibly inactivated by 1 mM iodoacetamide (4° C. for 15 min), prior to addition of 5 mM DTT to facilitate exogenous caspase-8 activity. No cleavage of topoisomerase-1, Mi-2, U1-70 kDa, PARP, Ku-70, RNA polymerase II large subunit, SRP-72, NuMA or Ki-67 occurred. Caspase-8 was indeed active in these lysates, as evidenced by robust caspase-3 cleavage products of PARP and U1-70 kDa seen when the IAA ‘poisoning’ step was omitted. Radiolabeled PMS1 and PMS2 (generated by IvTT) were also not cleaved by purified caspase-8.

[8] = tested on: endogenous DNA-PKcs, NuMA and PARP in HeLa cell lysates; experiment: Cleavage of endogenous substrates in HeLa lysates after adding purified granzyme B, with caspase inhibitors; assay type: biochemical; details: for cleavage of PARP: inhibitor added 15 minutes prior to 12.5 nM granzyme B, 100 nM Ac-DEVD-CHO or 2 mM iodoacetamide
Procedure: as §1

[9] = tested on: K562 cells; experiment: Substrate cleavage in intact K562 cells during YT cell granule content-induced cytotoxicity; assay type: cell-based; details: 100 μM Ac-DEVD-CHO
Procedure: Intact cytoplasmic granules were purified from YT cells, and the granule contents were isolated using known methods (Tschopp, 1994). Some of these preparations were used for the further purification of granzyme B (Tschopp, 1994). Purity of the protease was confirmed by silver staining of overloaded SDS-polyacrylamide gels. The cytotoxic effects of YT granule contents were determined as follows: Jurkat T cells or K562 cells were radiolabeled with 100 μCi/ml [^51Cr] sodium chromate, washed, resuspended in Ca^2+-free HBSS, and then incubated with granule contents (0-5 μl) and 1 mM CaCl2 for increasing times. The percentage specific [^51Cr] was calculated using the following formula: % specific lysis=[(sample cpm−spontaneous cpm)/(maximum cpm−spontaneous cpm)]×100. […] Aliquots containing 3.4×10^5 cells were incubated for a further 90 min at 37° C. with 1 mM EDTA or 1 mM Ca^2+ and 2 μl of YT granule contents (which induces 20-40% specific chromium release in 60 min, and characteristic internucleosomal DNA degradation. The total reaction volume of each sample was 30 μl. The reactions were terminated by boiling in SDS gel buffer and samples were electrophoresed and immunoblotted as described above. Experiments were performed using 2 different preparations of granule contents and 4 different cell types (K562, Jurkat, HeLa, primary human myoblasts).

[10] = tested on: HeLa cells; experiment: Confocal immunofluorescence of morphologic changes in HeLa cells exposed to YT cell granule contents; assay type: cell-based; details: 100 μM Ac-DEVD-CHO
Procedure: Morphologic experiments were performed on HeLa cells grown on No. 1 glass coverslips. […] 25 μl of HBSS containing 2 mM CaCl2 was then added to each coverslip (mixed well by repeated, gentle aspiration), followed by incubation in a humidified chamber at 37° C. for 60 min. […] Coverslips were mounted on glass slides with Permafluor (Lipshaw, Pittsburgh, Pa.), and confocal microscopy was performed on a scanning confocal microscopy system (LSM 410, Carl Zeiss, Inc., Thornwood, N.J.).

[11] = tested on: K562 erythroleukemia cells; experiment: Substrate cleavage in Fas-negative K562 target cells attacked by LAK cells; assay type: cell-based
Procedure: LAK cells were obtained by culturing human PBMCs for 4 days in LAK medium (RPMI supplemented with 10 mM Hepes pH 7.4, L-glutamine, 2% autologous plasma), and 1000 Cetus units/ml of hrIL-2 (Chiron Therapeutics, Emeryville, Calif.) (Topalian et al., 1989). […] After 2 washes with PD, cells were lysed and boiled in SDS sample buffer, and PARP, DNA-PKcs and NuMA were assayed by immunoblotting as described above.

[12] = 100 μM Ac-DEVD-CHO, LAK:K562 5:1

T5 sequence (P10144 21-247): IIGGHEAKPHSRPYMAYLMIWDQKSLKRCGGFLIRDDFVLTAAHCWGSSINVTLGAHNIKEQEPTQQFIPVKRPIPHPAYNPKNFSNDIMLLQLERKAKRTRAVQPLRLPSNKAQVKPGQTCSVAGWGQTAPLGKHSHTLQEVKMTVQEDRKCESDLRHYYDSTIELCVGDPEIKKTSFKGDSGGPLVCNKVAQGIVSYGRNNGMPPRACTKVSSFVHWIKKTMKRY
Sequence of caspase-8 (Q14790 217-374 limits assumed, species assumed): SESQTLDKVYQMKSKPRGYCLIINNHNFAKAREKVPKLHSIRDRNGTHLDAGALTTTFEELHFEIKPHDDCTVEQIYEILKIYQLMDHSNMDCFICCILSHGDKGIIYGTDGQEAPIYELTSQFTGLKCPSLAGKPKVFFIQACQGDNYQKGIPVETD
Sequence of caspase-8 (Q14790 385-479 limits assumed, species assumed): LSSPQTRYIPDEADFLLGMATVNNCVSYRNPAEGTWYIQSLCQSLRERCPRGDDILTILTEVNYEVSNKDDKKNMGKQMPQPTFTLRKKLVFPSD

In the case of “N-(N-Ac-Tyr-Val-Ala)-3-amino-4-oxobutanoic acid [Ac-YVAD-CHO]”, the Ki [1] is given as 0.0006 µM, the Ki [2] is given as greater than 10 µM and the Ki [3] is given as 0.408 µM. For the same compound, the “substrate fragments generated by the activity of caspase-3” value [4] was “unaffected” and the Ki [5] was greater than 10 µM.

For “U1-70 kDa: autoantigen cleaved by caspases during apoptosis”, the “susceptibility to cleavage by granzyme B” value [6] was “efficiently cleaved” and the “cleavage by caspase-8” value [7] was “No cleavage”.

In the case of `NC(=O)CI` [iodoacetamide], the “cleavage of PARP” value [8] is reported as “almost entirely abolished”.

In the case of KI-67: autoantigen, the “susceptibility to cleavage by granzyme B” value [6] is reported as “cleaved” and the “cleavage by caspase-8” value [7] is reported as “No cleavage”.

With Ku-70: autoantigen the “susceptibility to cleavage by granzyme B” value [6] was “efficiently cleaved” and the “cleavage by caspase-8” value [7] was “No cleavage”.

For “nuclear mitotic apparatus protein [NuMA]”, the “cleavage by caspase-8” value [7] was “No cleavage”.

In the case of “vinculin: control substrate, non-autoantigen [reference compound]”, the “susceptibility to cleavage by granzyme B” value [6] is reported as “not cleaved”.

In the case of Topoisomerase I: autoantigen, the “susceptibility to cleavage by granzyme B” value ([6]; listed as topoisomerase-1) is reported as “efficiently cleaved” and the “cleavage by caspase-8” value [7] is reported as “No cleavage”.

In the case of Ku-80: uncleaved autoantigen, the “susceptibility to cleavage by granzyme B” value [6] is reported as “uncleaved”.

For Ro52 kDa: ribonucleoprotein autoantigen, the “susceptibility to cleavage by granzyme B” value [6] was “not susceptible to cleavage”.

In the case of PMS2: autoantigen, the “susceptibility to cleavage by granzyme B” value [6] is reported as “cleaved” and the “cleavage by caspase-8” value [7] is reported as “not cleaved”.

In the case of poly(ADP-ribose)polymerase [PARP], the “susceptibility to cleavage by granzyme B” value [6] is reported as “efficiently cleaved” and the “cleavage by caspase-8” value [7] is reported as “No cleavage”.

For RNA polymerase I: autoantigen, the “susceptibility to cleavage by granzyme B” value [6] was “cleaved”.

For Ro 60k: ribonucleoprotein autoantigen, the “susceptibility to cleavage by granzyme B” value [6] was “uncleaved” and the “susceptibility to cleavage by granzyme B” value ([6]; listed as Ro 60 kDa) was “not susceptible to cleavage”.

For “N-(N-Ac-Asp-Glu-Val)-3-amino-4-oxobutanoic acid [Ac-DEVD-CHO]”, the “generation of 150 kDa and 120 kDa DNA-PKcs fragments” value ([9]; YT granule contents) was “entirely inhibited”, the “generation of the 89 kDa PARP fragment” value ([9]; YT granule contents plus Ca2+) was “completely inhibited” and the “production of granzyme B-specific cleavage fragments of DNA-PKcs and NuMA” value ([9]; YT granule contents plus Ca2+) was “not inhibited”. The “cleavage of PARP” value [8] was “almost entirely abolished”, the “generation of caspase-3-specific fragments of NuMA (185 kDa) and DNA-PKcs (150 kDa C-terminal)” value ([8]; inhibitor added prior to granzyme B) was “abolished” and the “granule content-induced surface blebbing, nuclear fragmentation, apoptotic bodies, redistribution of nuclear autoantigens” value [10] was “prevented”. The “100 kDa granzyme B-specific fragment of DNA-PKcs” value [11, 12] was “insensitive”, the “inhibition of generation of caspase-3-specific fragments of DNA-PKcs” value [11, 12] was greater than 90% and the PARP cleavage ([11]; 100 μM Ac-DEVD-CHO, LAK:K562 5:1, 4 h) was “entirely abolished”. For the same compound, the “cleavage of PMS1” value ([11]; intact cell killing by LAK cells, Ac-DEVD-CHO added) was “unaffected”.
